Molecular target: T1, GST-Hoxa1-993 (mouse, UniProt P09022 1-331)
T1 sequence (looked up): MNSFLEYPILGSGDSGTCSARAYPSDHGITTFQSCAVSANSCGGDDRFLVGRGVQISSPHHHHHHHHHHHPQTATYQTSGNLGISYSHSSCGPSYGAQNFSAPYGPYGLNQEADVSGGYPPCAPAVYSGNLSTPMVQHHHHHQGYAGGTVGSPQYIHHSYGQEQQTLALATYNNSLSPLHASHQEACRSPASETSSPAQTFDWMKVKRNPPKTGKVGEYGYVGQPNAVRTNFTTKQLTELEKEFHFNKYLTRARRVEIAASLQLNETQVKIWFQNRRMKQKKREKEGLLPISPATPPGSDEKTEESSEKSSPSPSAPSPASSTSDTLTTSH
Test: pull-down

B1: Hoxa1-399, [35S]-labeled, in vitro translated (natural protein, mouse, UniProt P09022-2 1-133, looked up)
chain: MNSFLEYPILGSGDSGTCSARAYPSDHGITTFQSCAVSANSCGGDDRFLVGRGVQISSPHHHHHHHHHHHPQTATYQTSGNLGISYSHSSCGPSYGAQNFSAPYGPYGLNQEADPPRSLSFPCFRDVFSSADL
modifications: [35S]-cysteine radiolabel
fold bound over GST alone: 8 fold

From publication PMC3923656 (Journal of cellular biochemistry, 2009)
